What was measured:
[1] = system: transgenic soybean plants; assay: S-3100 tolerance of transformed soybean plantlets at five weeks; assay type: in vivo; parameters: key to Tolerance score to S-3100 at 5 weeks: 0 for poor tolerance, high damage, low green coloration; 1 for some tolerance, average damage, moderate green coloration; 2 for good tolerance, low damage, high green coloration; details: for Tolerance score to S-3100 at 5 weeks: day four post application
Experimental: The microbial HemY PPO enzymes were expressed in transgenic soybean plants, and the transgenic plants were analyzed for PPO herbicide tolerance. […] For plant transformation, the nucleotide sequences encoding the HemY PPO enzymes were codon optimized for dicot expression. This permitted the side-by-side comparison of the seven different HemY PPO enzymes with thirty-nine different targeting peptides using the same promoter and 3′UTR elements for gene expression
The plant transformation constructs were used to transform soybean excised embryos (germplasm A3555) using A. tumefaciens and standard methods known in the art. Four hundred explants were inoculated for each construct resulting in twelve containers per construct. A sterile PPO herbicide solution was used for herbicide tolerance testing. The herbicide solution consisted of 0.3 g of S-3100 in crop oil concentrate (5.0 mL) and 495 mL of deionized water. This was filtered through a 0.45 micron Nalgene® Rapid-Flow™ Tissue Culture Filter Unit and Surfactant-Free Cellulose Acetate membrane filter unit (VWR, Radnor, Pa., USA). The resulting sterile solution was shaken before application.
At five weeks post-transformation, four of the twelve plant containers per construct were sprayed with two passes of the sterile PPO herbicide solution. The treated plantlets were then enclosed in the container and received at least 15 hours of light exposure post spray each day for four days. At the end of day four post application of S-3100, the treated plantlets were photographed and scored on a visual scale of green coloration (green coloration was representative of healthy photosynthetic plant tissue as compared to photo-bleached tissue) versus damage. The scoring values were 0 for poor tolerance, high damage, low green coloration; 1 for some tolerance, average damage, moderate green coloration; and 2 for good tolerance, low damage, high green coloration. The results of herbicide application of S-3100 at five weeks is presented in Table 5, where n.d. indicates the analysis was not conducted.

[2] = system: hemG knockout E. coli strain; assay type: cell-based; details: acifluorfen and S-3100
[3] = PPO enzyme assay, apparent Km for substrate; assay type: biochemical; details: substrate protoporphyrinogen

B1: R2N90: microbial HemY protoporphyrinogen oxidase, SEQ ID NO:4 (protein, listed as Bacillus pumilus)
chain: MHDNQKHLVIIGGGITGLAAAFYLEKEVEEKGLPIQISLIEASPRLGGKIQTLYKDGYIIERGPDSFLERKVSGPQLAKDVGLSDQLVNNETGQAYVLVNEKLHPMPKGAVMGIPTQISPFITTGLFSVAGKARAAMDFVLPKSKQTEDQSLGEFFRRRVGDEVVENLIEPLLSGIYAGDIDRLSLMSTFPQFYQTEQQHRSLILGMKKSQQHAKAQQVTAKKQGQFQTINQGLQSLVEAVEGKLKLTTVYKGTKVKQIEKTDGGYGLQLDSGQTLFADSAIVTTPHQSIYSMFPKEAGLEYLHDMTSTSVATVALGFKDEDVHNEYDGTGFVISRNSDFSITACTWTNKKWPHTAPKGKTLLRAYVGKAGDESIVEQSDSQIVSIVLEDLKKIMDIKADPELTTVTRWKTSMPQYHVGHQKAISNMRETFKQSYPGVYITGAAFEGVGIPDCIDQGKAAISEAVSYLFS
0: Tolerance score to S-3100 at 5 weeks ([1]; targeting peptide TP2) | Tolerance score to S-3100 at 5 weeks ([1]; targeting peptide TP5) | Tolerance score to S-3100 at 5 weeks ([1]; targeting peptide TP10) | Tolerance score to S-3100 at 5 weeks ([1]; targeting peptide TP13) | Tolerance score to S-3100 at 5 weeks ([1]; targeting peptide TP14) | Tolerance score to S-3100 at 5 weeks ([1]; targeting peptide TP16) | Tolerance score to S-3100 at 5 weeks ([1]; targeting peptide TP20) | Tolerance score to S-3100 at 5 weeks ([1]; targeting peptide TP22) | Tolerance score to S-3100 at 5 weeks ([1]; targeting peptide TP24) | Tolerance score to S-3100 at 5 weeks ([1]; targeting peptide TP27) | Tolerance score to S-3100 at 5 weeks ([1]; targeting peptide TP28) | Tolerance score to S-3100 at 5 weeks ([1]; targeting peptide TP29) | Tolerance score to S-3100 at 5 weeks ([1]; targeting peptide TP30) | Tolerance score to S-3100 at 5 weeks ([1]; targeting peptide TP31) | Tolerance score to S-3100 at 5 weeks ([1]; targeting peptide TP32) | Tolerance score to S-3100 at 5 weeks ([1]; targeting peptide TP33)
1: Tolerance score to S-3100 at 5 weeks ([1]; targeting peptide TP8) | Tolerance score to S-3100 at 5 weeks ([1]; targeting peptide TP9) | Tolerance score to S-3100 at 5 weeks ([1]; targeting peptide TP12) | Tolerance score to S-3100 at 5 weeks ([1]; targeting peptide TP18) | Tolerance score to S-3100 at 5 weeks ([1]; targeting peptide TP19) | Tolerance score to S-3100 at 5 weeks ([1]; targeting peptide TP21) | Tolerance score to S-3100 at 5 weeks ([1]; targeting peptide TP23)
2.8 µM: Km [3]
slower: growth rate of hemG knockout E. coli strain in presence of PPO herbicide [2]
did not provide tolerance: tolerance to the PPO herbicide in high-throughput screening at five weeks ([1]; S-3100, over the constructs with different transit peptides)
much better: tolerance to acifluorfen and S-3100 compared with strain containing R2N30 or R2N40 [2]

— patent publication US11319551B2, “Methods and compositions for PPO herbicide tolerance in plants” (Monsanto Technology LLC, priority 2015, dated 2022)
